Test results as given in PMC9755527.

Experiments:
CccR = CccR (Yersinia pseudotuberculosis, UniProt Q666X7 1-380); test: ITC; stoichiometry 1:2; conditions: protein: recombinant; tags: His6 (pET28a) or GST (pGEX6p-1); His6 stated for EMSA; chain copies: 2
CccR201-380 = CccR201-380 (Yersinia pseudotuberculosis, UniProt Q666X7 201-380); test: ITC; conditions: protein: recombinant; tags: His6 (EMSA)
CccR1-220 = CccR1-220 (Yersinia pseudotuberculosis, UniProt Q666X7 1-220); test: ITC; conditions: protein: recombinant; tags: His6 (pET28a) or GST (pGEX6p-1)

B1: PcccR 100-bp ITC probe (dsDNA)
DNA 1: ATATTCAATCGGATGTATCGCCACGGATTTTTGAGATAATCATAAAGTTACTTTTGAGATAATCTACAAATGATAATCTGTTAACATAATGGCTATAAAG
DNA 2: CTTTATAGCCATTATGTTAACAGATTATCATTTGTAGATTATCTCAAAAGTAACTTTATGATTATCTCAAAAATCCGTGGCGATACATCCGATTGAATAT
Kd (CccR): 2.56 ± 0.12 µM | Kd (CccR201-380): 6.13 ± 0.11 µM | Kd (CccR1-220): 1530 ± 130 µM
